{"source": "the nanobody polyreactivity screen of Harvey et al. (2022)"}
{"assay": "yeast display, Sf9 membrane polyspecificity reagent, FACS + sequencing; frameworks hold sequencing errors", "procedure,_shortened": "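Nanobodies from a synthetic yeast display library (Saccharomyces cerevisiae BJ5465), induced 36–48 hours with galactose, were stained 1 hour at 4 °C with 10% biotinylated, detergent-solubilized Sf9 membrane reagent, enriched on streptavidin microbeads, then FACS-sorted. Anti-HA (expression) and streptavidin (reagent binding) fluorescence set low and high (top ~1%) gates. Polyreactivity labels come from the gate of origin. Genes were colony-PCR amplified, MiSeq 2 × 250 sequenced and filtered by CDR length.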"}
{"sequence": "QVQLVESGGGLVQAGGSLRLSCDASGSIFPYNAMGWYRQAPGKEREFVAAINLSGRSTNYADSVKGRFTISRDNAKNTVYLQMNSLKPEDTAVYYCNAPFVYFWPLNFDYWGQGTQVTVSS", "polyreactivity (PSR sort gate)": "low polyreactivity"}
{"sequence": "QVQLVESGGGLVQAGGSLRLSCDASGSIFRGNAMGCYRQAPGKERELVPDITSGSNTYYADSVKGRFTISRDNAKNTVYLQMNSLKPEDTAVYYCAADGVAYPWWSVYNSFDYWGQGTQVTVSS", "polyreactivity (PSR sort gate)": "low polyreactivity"}
{"sequence": "QVQLVESGGGLVQAGGSLRLSCDASGSIFRGNAMGWYRQAPGKERELVATITNGGSTNYADSVKGRFTISRDNAKNTVYLQMNSLKPEDTAVYYCNADHSYHIASTRHVDYWGQGTQVTVSS", "polyreactivity (PSR sort gate)": "low polyreactivity"}
{"sequence": "QVQLVESGGGLVQAGGSLRLSCDASGSIFRSYAMGWYRQAPGKERELVASITRSSGSTYYADSVKGRFTISRDNAKNTVYLQMNSLKPEDTAVYYCAAYTGVRGYYYWGQGTQVTVSS", "polyreactivity (PSR sort gate)": "high polyreactivity"}
{"sequence": "QVQLVESGGGLVQAGGSLRLSCDASGSIFRYYGMGWYRQAPGKEREMVAVISYRGGSTYYADSVKGRFTISRDNAKNTVYLQMNSLKPEDTAVYYCIADDPSKLGYEHDYWGQGTQVTVSS", "polyreactivity (PSR sort gate)": "low polyreactivity"}
{"sequence": "QVQLVESGGGLVQAGGSLRLSCDASGSILVAYAIGWYRQAPGKEREFVAAISSVGNTYYADSVKGRFTISRDNAKNTVYLQMNSLKPEDTAVYYCNAVYRVWYAEWSTVGSPHDYWGQGTQVTVSS", "polyreactivity (PSR sort gate)": "low polyreactivity"}
{"sequence": "QVQLVESGGGLVQAGGSLRLSCDASGSTFGIYAMGCYRQAPGKERELVAANSRSGDSTYYADSVKGRFTISRDNAKNTVDLQMNSLKPEDTAVYYCAADSYRLRYWAVTTHRVQYDYWGQGTQVTVSS", "polyreactivity (PSR sort gate)": "low polyreactivity"}
{"sequence": "QVQLVESGGGLVQAGGSLRLSCDASGSTFGPYTMGWYRQAPGKERELVATISSGGSTYYADSVKGRFTISRDNAKNTVYLQMNSLKPEETAVYYCAARYWSIYDYWGPGTQVTVSS", "polyreactivity (PSR sort gate)": "low polyreactivity"}
{"sequence": "QVQLVESGGGLVQAGGSLRLSCDASGSTFISYAMGWFRQAPGKERELVAAISSGGGRTSYADSVKGRFTISRDNEKNTVYLQMNSLKPEDTAVYYCNTKKLPYAEGYWGQGTQVTVSS", "polyreactivity (PSR sort gate)": "low polyreactivity"}
{"sequence": "QVQLVESGGGLVQAGGSLRLSCDASGSTFRGNAMGWYRQAPGKEREFVASISRRGGRTNYADSVKGRFTISRDNAKNTVYLQMNSVKPEDTAVYYCAATTVPLGDYWGLGTQVTVSS", "polyreactivity (PSR sort gate)": "high polyreactivity"}
{"sequence": "QVQLVESGGGLVQAGGSLRLSCDASGSTFSDYAMGWYRQAPGKERELVAAISDSGSGTYYADSVKGRFTISRDNAKNTVYLQMNSLKPEDTAVYYCNTDPRFAMDWGQGTQVTVSS", "polyreactivity (PSR sort gate)": "low polyreactivity"}
{"sequence": "QVQLVESGGGLVQAGGSLRLSCDASGSTFTGYAMGWYRQAPGKERELVAAISRSGGSTSYADSVKGRFTISRDNAKNTVYLQMNSLKPEDTAGYYCAAQVQGTTRAKQRGGIGELDYWGQGTQVTVSS", "polyreactivity (PSR sort gate)": "low polyreactivity"}
{"sequence": "QVQLVESGGGLVQAGGSLRLSCDASGSTFWYAMGWYIKAPGKEMDLVAAITARGGRTYYADSVKGRFTISRDNAKNTVYLQMNSLKPEDTAVYYCARLSYAGGQWIIGKYDYWGQGTQVTVSS", "polyreactivity (PSR sort gate)": "high polyreactivity"}
{"sequence": "QVQLVESGGGLVQAGGSLRLSCDASGSTFYLYKGWYRQAPGKERELVAAITSGGRTYYADSVKGRFTISRDNAKNSVYLQMNSLKPVVSAVYYCARPYSRAYDYWGEGTQVTVSS", "polyreactivity (PSR sort gate)": "high polyreactivity"}
{"sequence": "QVQLVESGGGLVQAGGSLRLSCDASGSTLVVNAMGWYRPAPGKERELVAAISDGGSTNYADSVKGRFTISRDNAMNTVYLQMNSLKPEDTADYYCAKDCETEVIDDYWGQGTQVTVSS", "polyreactivity (PSR sort gate)": "low polyreactivity"}
{"sequence": "QVQLVESGGGLVQAGGSLRLSCDASVSIFVANAMGWSRQATGKERELVAAITGRGSRTYYADSVKGRFTISRDNAKNTVYLQMNSLKPEDTAVYYCADRYTNYGGYYWGQGTQVTVSS", "polyreactivity (PSR sort gate)": "high polyreactivity"}
